Measured values reported in a protein production outcome set (Wang et al. 2014).

Test: label from the status in PepcDB records
For “MFLGAAMAQVSLCMIVRDEAELLPRCLASVKDQVDELIVLDTGSRDRTPAIATEAGAKLLHTDWADDFSAARNQAIAAATGDWILVLDADEELILEAWTELRSQLDQPEALAFTVLREETQAGQVPYSRLSRLFRNRPDIRFQRPYHELVDDSLLALQQQEPNWRITAWPTPVIRHYGYGRDRLQQRGTAERMRQSLETWLADHPEDAYLCSKLGGLLVQEGDLKAAQRWLKQGLKQGRPEPAVRYELLYHLALLERRQGDLDAAIDRYQAALQEPVDAIHKLGAWVNLSHLYRDRGQLGLAYDAARQAVAAAPQATVALTALGLAARAIGNYPEAIAAYQQALQLDPNDPSLYQNLGAVLFQVGQLEASYAAFRQAIAGYEQQGSPEAQRLELRLQAMGIRL”, the protein production was “failed”.
With “MFLKLFSLFLIIPLVEIYLLIKIGGIIGAFNTVLVILITASLGAYLTKSQGFRVFHQIQDATRQGYMPGNELLHGLFVLIGGFALLTPGFLTDAIGFSMLIPQIREIYVGIAKGIIRKKIEQGNFQMRVYTDFR” the protein production was “failed”.
For “MFLKRIELQREKVLSFQEYPFSIPAIKHFQRLELKSRVTFFVGENGSGKSTLLEAIADKCEFNTAGGGRNNYYEVDASESALGDYIRLSWLPKVSNGFFLRAESFYHFASHVDEVDARHAYGGRSLHHQSHGEAFLSLFANRFNRKGIYLLDEPEAALSPRRQLSFLAILHDLVSSGDSQFIIATHSPILLGYPHATILSFDHGTIEETTYEQTEHYQLTRYFLENRERMLRELLGELEHHHHHH”, the protein production was “failed”.
For “MFLLQQLDHTVKKMKSQLANFFTIINLSCGVFAILFTLQGELRVSLLFITIAAVFDRLDGAAARKFDCASDFGKQLDSLTDIISFGVAPALMIYHAILFDFGYAGALFTVFYIACGAIRLARFNITENHNSFIGLPITAAGCILTLLYLAVGYWPDYTFMFAILILSFLMVSTIRVRKM”, the protein production was “failed”.
For “MFLRIANKILKRLAGVQVIPVNKKRLSVLDNKHLHIASNSILLEGTSLDFRQEISSSDTYVSIGGYCLIKAIFTFETTTGLITIGNNVHIGNAHFICRSAITIHDDVTMAWGITLYDHNSHSIHWEERKDDNKTCYEDFVQHHGNNIVNKNWINVLSRPIVIESKAWIGFNVTILKGVTIGEGAVIGACSVVTKDVPAWTVVAGNPAAVVKHLQKPE”, the protein production was “failed”.
With “MFLVNNIRCSNMAEFPYTTVPGKIKPFFQKIQEAGLPSKVTQKWINSIGFTSSNDPSIIPLLKKLGFIDRSGVPTELWARYRDKDLAPKVMAEAIKNAYKELFETYPDAYRKDKEALRNFFASQTGKAENTIEKMIQTFKALCELADFESNSEEYPHNEVVPSREGLTTLMEKQTPKGLTINVNIQLQLPATTDEEVYDKLFRSLKRNLLSE” the protein production was “not failed”.
For “MFMFRNCAVLLVIGSICCFIYGLFRLHVEVEPNACRMTYMFGEPMFAKVGVRDGDQYPNYALYYYYEGLRQPLDPLKRRMTGAPVIFVPGNAGSYKQVRSLASVALRKAMSNDAGIHLDYYTIDYDEELSALYGGYLHRQQSYLKLCIRTILSIYEGRTEQPSIVLIGHSMGGKLAQSVLVDPAIGQHINTIISISTPLDQPVLNLDTQLEEFYDQTDAVLSKLRTATVPTMTTNVCDSLHQRPPSVQRMASQDSSARLDNVLLISTGGGNRDLLVRPGLTSSRFNDLHAMTSAIPKVSLSCDHLSAVWCLQFMQAINRFLFSVAYVREDRSSIAFGTNKQRNLQTALSTFVKPRRRQQNTVRFGAAGNWHEERRLVINKYFTNGLKGTFFDLIGLQRQERYRKAAIEALNVDDEDWLFGCSAEDNNKTGQLYCEKATSLMHLVQWLPNEDREPRSIALLDLHNLRKTYVHWTHLLVRLPPSAKRIGYNLDIYDPKERVTDIKMPRWYTMAKLPLINETLQGTLHHRVRISEMVDPYQSIRVIVEPLQCINPEYRVTARICVPWAAGFERFQTLKSFDQKPQLYVNVPTLVPRHYNTTLNPVTLELYLDPTCRYRISYEYSYSSALSRLVLEFYGWLPAHLVCVLLIVLRKQVETFYDVGTFRSLRPYVGYLQYTSLYIVTACRLLKKLIISSRVFPEPEPLDYSINVSIVIHCAAIALSLLATLGTWLALTLYGNAFYRLALRITRLSQATSNVMISIMTHLPITYGILTIATAMGTCSGVGLLLAFVFYFLMLSNAYKDYLEDFLWQKAANLVRGKPSAVTEQEDATEEQNEEQNALKQNDEQKQQQQEEEEPEACVGLQNFSFHVTLLLMLFVQLLLNAPSSLAWLRSRRHGINLPDPSLYPSIVVLASLSLLLQLRAPQKCQGYWMLSIAFYILAGVVLLYCQAAIYRLTYVIAGAFALLSAHQSLWILWGRVSRV”, the protein production was “failed”.
In the case of “MFMGKLPHQADLIGALIEAAGANGIRAGAIQVIGALQGAKLGFYDQWSKSYRELPFAKPLEIVSGLGNISLRDGRPFVHLHLSISDEEGKVFGGHALEGCTIFAAEYAIMPLPGSAPVRVFDETTGLFLWEREQYPASGQKGLSPELERALLNPLEHHHHHH”, the protein production is reported as “not failed”.
For “MFMIPAWLWIGLIAFALAFVCNRLSPRDLRWFNRLRRPSWLTFEWAIPFIWIAIFIAGAISATLAWNATADPGHRWGLMVGYLLLELTVMAYTPVMCKLRSLRVGSIIGATGFFVGLALVIAVSQVSTTAFGFLVPFLLWSPIGTYVTWAMIPLNPGEI”, the protein production was “failed”.
In the case of “MFMKKWIGIDLGTTNTVASYFDVSSKIILNERGERITPSIVSFSDKDVLVGSAAKNQILVNPQKTFYNFKTNIGSNNFYKVDGEFYKAEYISAHLLASVKRNAEKFLDEEIENAVITVPAYFSEIQRRCVVEAANFAGLNCKAILNEPTAAAIAYAFERQIDGIFLIYDLGGGTFDVTLMEKQGDTYTVLSVKGQSRLGGNDFNKIIEKYVLDSFKNKYPDFNLEDIFLLEQLRERIEEGKKNLSVMEEVDITLLFLDGKHLNYNLKRDEFNSMISEYIDKTIQLSMECIADSGVDISSVSKIILSGGSTRIPLIEKVLKESFPSATILDALNQDEVVAIGAGIHAFSLSRNDSVIKFKDVTPYSLGLEIKDNEFFTLIKRNTALPISRSKLFTTTNDYQDEIEIHILQGEYKKASLNYSIGRFSFGNIQKALKGIPKIEVLFTLNESGILSVNAKDLETNSSNFIEIKITSSSDNVAKESLSNTFTSIID”, the protein production is reported as “failed”.
In the case of “MFNQLVKVIPNLFTIGNLLCGVFSITLNMSEYLGAASILIFFSAVLDFLDGRIARKLKVNSEFGVELDSLADIVSFGVAPALLFHTIATPSILTSLAFILFPTMGALRLAKFSIKPTIGYFKGLPIPAAGLSLAGMALFSYSNAWITLILALLMVSPIRFKKF”, the protein production is reported as “not failed”.
With “MFPFENQRLPISALIHKKNHSRLQPHPLFEEQPMKILLIGANGTIGSAVARELEQRHEVVRIGRTSGDFQVDISDSQSIRALFEKTGRFDALVCAAGNVTFAPLGEMTAEHFSLGLEDKLMGQVNLLLIGREYANDGASFTFTTGVLSHDPIRSGASAALVNGAIDSFVRAAAIELPRGLRVNSISPNVLLEAMGSYAPYFRGFKPVPAADVALAYAKSVEGLQTGQTYRVG” the protein production was “failed”.
For “MFPQRSSELYRTPVTHQPPPALELAGNLEYPNLNIADLNARLENLSPRLHDCWDSIAINDHNHLALATNRREGRQWWGMLFGYGRDQMHHMSVDSANFKLQAEHTVNIVRYAEDDFLLVALGDTRLQAWSTYSKVRDSQSPYCLFLVGESSAHPTPISQLSVFKADPRTAVSGSADSTLNVWDLSGADMVSTYRSRSSHTDKLTGLATPAASVDKFVTCDRGGCARLWDVRAAAPSSTCLYADASHVLSFTSAAWAAASELQGDNHIYLGDYDGKVHTLDIRVPRKLAETREYFDKGHVAQLLINGPHLAAMSNLPASVKVANVQAGHEFIYTHQDTHSRLTDAVWTDDSTLITIGHGRKMVTHAIK”, the protein production was “failed”.
In the case of “MFPSRRKAAQLPWEDGRSGLLSGGLPRKCSVFHLFVACLSLGFFSLLWLQLSCSGDVARAVRGQGQETSGPPRACPPEPPPEHWEEDASWGPHRLAVLVPFRERFEELLVFVPHMRRFLSRKKIRHHIYVLNQVDHFRFNRAALINVGFLESSNSTDYIAMHDVDLLPLNEELDYGFPEAGPFHVASPELHPLYHYKTYVGGILLLSKQHYRLCNGMSNRFWGWGREDDEFYRRIKGAGLQLFRPSGITTGYKTFRHLHDPAWRKRDQKRIAAQKQEQFKVDREGGLNTVKYHVASRTALSVGGAPCTVLNIMLDCDKTATPWCTFS”, the protein production is reported as “failed”.
With “MFQIIGIVLLFAMVFGSYIMAGGKMDVIIHAAPHELMAIGGAGVAAFLIGNSVTVIKATLGGFGTIFKGPKWKAQDYRDLLSLLFLLTKTMKSKGVIALEAHIEKPHESTIFSRYPKIAHDHFAVDFICDTLRMMTMNLEDPHQVEDAMEKQLEKHHHEAHGAAHALTQLSDGLPALGIVAAVLGVIKTMGSITEPPAVLGTMIGGALVGTFMGVFMAYGLVGPMATRLGGVLDEDHNFYKIIQAVLVAHLHGNAAQISVEIGRGNVPSAYQPSFAELEEALSQMPNE” the protein production was “failed”.
For “MFQKIAKECLAGFTVAIVALPLAIAFGIAATGTSEGALVGLYGAIFAGLFAALFGGTPGQVTGPTGPITVIATGVIATHGLEASFIVFMMAGLFQILFGVCKLGSYVRYIPYPVVSGFMNGIALIIILGEMKHVQNSFLLVVLTIIVMIVSGKWIKAIPSSLVALVGVTAMLPLFSSALEGLTVKLPVIGNLSLNKVIEKIGTIPEAMPTLHIPSLSGTGIAELILPALSIALLGSIDSLLTSVVMDNVTGTRHKSNKELVGQGIGNVMSGLFGGLAGAGATVRSIVNIRSGGKTALSASMHSVILFIFIMGLGSVVQYIPLAVLSGILILTGIGMFDWESMKKMHVAPKGDVVVMLVTMIVTVKFDLMIAVAFGIILAFIIYMVKCKERKASIVKEKEAIYKIKGPLSFLTVDRVFYALQDVKSPVVLRMKDTRYMDVSGAMALLNFIEQSGKSGLSVTLEQVPAHIEKILVTMASSEQKDKLLFTEADVMQGNALV”, the protein production was “failed”.
With “MFQRKTLQRRNLKGLNLNLHPDVGNNGQLQEKTETHQGQSRIEGHVMSNINAIQNNSNLFLRRGIKKKLTLDAFGDDQAISKPNTVVIQQPQNEPVLVLSSLSQSPCVSSSSSLSTPCIIDAYSNNFGLSPSSTNSTPSTIQGLSNIATPVENEHSISLPPLEESLSPAAADLKDTLSGTSNGNYIQLQDLVQLGKIGAGNSGTVVKALHVPDSKIVAKKTIPVEQNNSTIINQLVRELSIVKNVKPHENIITFYGAYYNQHINNEIIILMEYSDCGSLDKILSVYKRFVQRGTVSSKKTWFNELTISKIAYGVLNGLDHLYRQYKIIHRDIKPSNVLINSKGQIKLCDFGVSKKLINSIADTFVGTSTYMSPERIQGNVYSIKGDVWSLGLMIIELVTGEFPLGGHNDTPDGILDLLQRIVNEPSPRLPKDRIYSKEMTDFVNRCCIKNERERSSIHELLHHDLIMKYVSPSKDDKFRHWCRKIKSKIKEDKRIKREALDRAKLEKKQSERSTH” the protein production was “failed”.
In the case of “MFRDFRMSLLVAVICLGLAAWWGHTSSMGIWQALWLCLVLSVLEVSLSFDNAVVNAGVLKHMNAFWQKLFLTVGILIAVFGMRLVFPIVIVSVATGMGLVPVMQMALKEPDRYSQVLTDNYPSIAAFGGMFLLLVFLNFLFDQERKLHWLGPVERLVGKLGKADAMSVIVAVSVLLGTKLFLPDGIFQSVLFAGLGGILLYLLVGSVDALFEAEESEDGSMGPAKRSGIAAFLYLEVLDASFSFDGVIGAFAITRDVVIIMLGLAIGAMFVRSMTVYLVHKGTLDEFVFLEHGAHYAIGVLAIIMLVGTVYHVPEVLTGLIGVAFIAASVWSSIRYRKRHHIGPTEI”, the protein production is reported as “failed”.
For “MFRIKQLAWAMGCVSLMSGCTLYPWYQNKAGQAVNVKPVMEVRHAIRSADALYQLGRYYQAKVDYAEAIAAYEKALEADPRHVEAHNGLGVAHCLLDRHELALQYFRKAIGMAPLAAHLHNNLGYAHLVHGQEAEAVSAFERALLLEPHNQRARRHLAAVYKKAGLHDKAAALTVAPSGAPVGATKAPPTAPIPTPAPGTPAGTPAGIPSAAISAISPPMAAAPGEKQKLSCSAAARLLQVTPGVFEFRMAETEAMTAMPSGKIIGRTAPPQDSGKFSGQDIRIEVSNGNGLPGMARQVSDFLQQNGFARARLTDRQPYQQALTEIHYRPGHSGVAEEISRLMPGGSGVPTVESYNLRRDIHVRVMLGKDAVRQVAHLESPQKVQIAQGTAGAVE”, the protein production was “failed”.
